T1: human GIP receptor (human) (UniProt P48546)
T1 sequence (looked up): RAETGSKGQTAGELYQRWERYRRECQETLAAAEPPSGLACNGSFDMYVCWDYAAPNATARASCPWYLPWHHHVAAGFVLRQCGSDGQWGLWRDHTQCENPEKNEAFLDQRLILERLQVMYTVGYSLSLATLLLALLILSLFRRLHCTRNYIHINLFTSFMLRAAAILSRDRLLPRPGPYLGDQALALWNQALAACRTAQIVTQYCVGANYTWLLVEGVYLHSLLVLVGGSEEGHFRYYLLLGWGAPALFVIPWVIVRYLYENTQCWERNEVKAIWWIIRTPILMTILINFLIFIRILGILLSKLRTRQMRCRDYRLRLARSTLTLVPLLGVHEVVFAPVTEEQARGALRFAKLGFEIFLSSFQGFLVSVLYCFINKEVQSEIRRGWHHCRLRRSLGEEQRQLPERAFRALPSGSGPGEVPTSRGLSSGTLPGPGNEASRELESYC

B1: Example 489 (peptide)
chain: YXQGTXTSDXSIXLDXKAQXXFIEYLIEGGPSSGEPPPSEG
modifications: synthetic construct; SITE 2: note = 2-Aminoisobutyric Acid; SITE 6: note = alpha-methyl-2-fluoro-L-phenylalanine; SITE 10: note = 3-(4-Pyridyl)-L-alanine; SITE 13: note = alpha-methyl-leucine; SITE 16: note = L-ornithine; SITE 17: note = Lysine is chemically modified through conjugation of the epsil
B2: Example 492 (peptide)
chain: YXQGTXTSDXXIXLDXKAQXXFIEYLIEGGPSSGAPEPSEG
modifications: synthetic construct; SITE 2: note = 2-Aminoisobutyric Acid; SITE 6: note = alpha-methyl-2-fluoro-L-phenylalanine; SITE 10: note = 3-(4-Pyridyl)-L-alanine; SITE 11: note = alpha-methyl-L-serine; SITE 13: note = alpha-methyl-leucine; SITE 16: note = L-ornithine; SITE 17: note = Lysine is chemically mo
B3: Example 494 (peptide)
chain: YXQGTXTSDXSIXLDXKAQXXFIEYLLEGGPSSGEPPPEEG
modifications: synthetic construct; SITE 2: note = 2-Aminoisobutyric Acid; SITE 6: note = alpha-methyl-2-fluoro-L-phenylalanine; SITE 10: note = 3-(4-Pyridyl)-L-alanine; SITE 13: note = alpha-methyl-leucine; SITE 16: note = L-ornithine; SITE 17: note = Lysine is chemically modified through conjugation of the epsil
B4: Example 495 (peptide)
chain: YXQGTXTSDXSIXLDKKAQXAFIEYLEEGGPSSGAPPPE
modifications: synthetic construct; SITE 2: note = 2-Aminoisobutyric Acid; SITE 6: note = alpha-methyl-2-fluoro-L-phenylalanine; SITE 10: note = 4-nitro-L-phenylalanine; SITE 13: note = alpha-methyl-leucine; SITE 17: note = Lysine is chemically modified through conjugation of the epsilon-amino group of the Lysine
B5: Example 497 (peptide)
chain: YXQGTFTSDXSXXLDKKAQXAFIEXLIEGGPSSGAPPPSGS
modifications: synthetic construct; SITE 2: note = 2-Aminoisobutyric Acid; SITE 10: note = 3-(4-Pyridyl)-L-alanine; SITE 12: note = L-ornithine; SITE 13: note = alpha-methyl-leucine; SITE 17: note = Lysine is chemically modified through conjugation of the epsilon-amino group of the Lysine side chain with (2-[2-(2-
B6: Example 502 (peptide)
chain: YXQGTXTSDXXIXLDXKAQXXFIEYLIEGGPSSGEPPPSGT
modifications: synthetic construct; SITE 2: note = 2-Aminoisobutyric Acid; SITE 6: note = alpha-methyl-2-fluoro-L-phenylalanine; SITE 10: note = 3-(4-Pyridyl)-L-alanine; SITE 11: note = alpha-methyl-L-serine; SITE 13: note = alpha-methyl-leucine; SITE 16: note = L-ornithine; SITE 17: note = Lysine is chemically mo
B7: Example 503 (peptide)
chain: YXQGTXTSDXXIXLDXKAQXXFIEXLQEGGPSSGEPPPEGTE
modifications: synthetic construct; SITE 2: note = 2-Aminoisobutyric Acid; SITE 6: note = alpha-methyl-2-fluoro-L-phenylalanine; SITE 10: note = 3-(4-Pyridyl)-L-alanine; SITE 11: note = alpha-methyl-L-serine; SITE 13: note = alpha-methyl-leucine; SITE 16: note = L-ornithine; SITE 17: note = Lysine is chemically mo
B8: Example 504 (peptide)
chain: YXQGTXTSDXXIXLDXKAQXXFIEXLQEGGPSSGEPPPSGTE
modifications: synthetic construct; SITE 2: note = 2-Aminoisobutyric Acid; SITE 6: note = alpha-methyl-2-fluoro-L-phenylalanine; SITE 10: note = 3-(4-Pyridyl)-L-alanine; SITE 11: note = alpha-methyl-L-serine; SITE 13: note = alpha-methyl-leucine; SITE 16: note = L-ornithine; SITE 17: note = Lysine is chemically mo
B9: Example 505 (peptide)
chain: YXQGTXTSDXSIXLDXKAQXXFIEXLIEGGPSSGEPPPEGT
modifications: synthetic construct; SITE 2: note = 2-Aminoisobutyric Acid; SITE 6: note = alpha-methyl-2-fluoro-L-phenylalanine; SITE 10: note = 3-(4-Pyridyl)-L-alanine; SITE 13: note = alpha-methyl-leucine; SITE 16: note = L-ornithine; SITE 17: note = Lysine is chemically modified through conjugation of the epsil
B10: Example 522 (peptide)
chain: YXQGTXTSDXXIXLDXKAQXXFIEYLIEGGPSSGEPPPSGTE
modifications: not fully specified; printed without C-terminal amide; synthetic construct; SITE 2: note = 2-Aminoisobutyric Acid; SITE 6: note = alpha-methyl-2-fluoro-L-phenylalanine; SITE 10: note = 3-(4-Pyridyl)-L-alanine; SITE 11: note = alpha-methyl-L-serine; SITE 13: note = alpha-methyl-leucine; SITE 16: note = L-ornithine; SITE 17: note = Lysine is chemically mo
B11: Example 523 (peptide)
chain: YXQGTXTSDXXIXLDXKAQXXFIEYLIEGGPSSGEPPPSGTGE
modifications: synthetic construct; SITE 2: note = 2-Aminoisobutyric Acid; SITE 6: note = alpha-methyl-2-fluoro-L-phenylalanine; SITE 10: note = 3-(4-Pyridyl)-L-alanine; SITE 11: note = alpha-methyl-L-serine; SITE 13: note = alpha-methyl-leucine; SITE 16: note = L-ornithine; SITE 17: note = Lysine is chemically mo
B12: Example 524 (peptide)
chain: YXQGTXTSDXXIXLDXKAQXXFIEYLIEGGPSSGEPPPSGTGE
modifications: not fully specified; C-terminal amide; synthetic construct; SITE 2: note = 2-Aminoisobutyric Acid; SITE 6: note = alpha-methyl-2-fluoro-L-phenylalanine; SITE 10: note = 3-(4-Pyridyl)-L-alanine; SITE 11: note = alpha-methyl-L-serine; SITE 13: note = alpha-methyl-leucine; SITE 16: note = L-ornithine; SITE 17: note = Lysine is chemically mo
B13: Example 525 (peptide)
chain: YXQGTXTSDXXIXLDXKAQXNFIEXLQEGGPSSGEPPPEGT
modifications: synthetic construct; SITE 2: note = 2-Aminoisobutyric Acid; SITE 6: note = alpha-methyl-2-fluoro-L-phenylalanine; SITE 10: note = 3-(4-Pyridyl)-L-alanine; SITE 11: note = alpha-methyl-L-serine; SITE 13: note = alpha-methyl-leucine; SITE 16: note = L-ornithine; SITE 17: note = Lysine is chemically mo

Experiments:
Experiment in all cases: cell-based or functional assay
hGLP-1R = hGLP-1R (Homo sapiens, UniProt P43220)
[1] = molecular target: T1, human GIP receptor (human)
[2] = molecular target: human glucagon receptor (human) (UniProt P47871)
human glucagon receptor (human), sequence (P47871 26-477): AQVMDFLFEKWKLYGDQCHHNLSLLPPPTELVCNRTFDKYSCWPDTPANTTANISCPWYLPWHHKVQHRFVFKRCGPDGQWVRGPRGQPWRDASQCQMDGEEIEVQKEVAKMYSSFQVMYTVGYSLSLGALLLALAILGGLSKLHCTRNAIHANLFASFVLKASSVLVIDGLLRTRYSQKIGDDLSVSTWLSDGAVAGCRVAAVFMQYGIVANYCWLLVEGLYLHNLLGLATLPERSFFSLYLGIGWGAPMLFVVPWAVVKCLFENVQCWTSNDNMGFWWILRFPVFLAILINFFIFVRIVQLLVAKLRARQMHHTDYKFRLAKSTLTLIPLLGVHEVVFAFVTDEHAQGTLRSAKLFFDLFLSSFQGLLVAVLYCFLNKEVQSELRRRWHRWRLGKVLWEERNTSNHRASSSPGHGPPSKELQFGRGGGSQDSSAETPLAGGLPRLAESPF

hGLP-1R, sequence (P43220 24-463): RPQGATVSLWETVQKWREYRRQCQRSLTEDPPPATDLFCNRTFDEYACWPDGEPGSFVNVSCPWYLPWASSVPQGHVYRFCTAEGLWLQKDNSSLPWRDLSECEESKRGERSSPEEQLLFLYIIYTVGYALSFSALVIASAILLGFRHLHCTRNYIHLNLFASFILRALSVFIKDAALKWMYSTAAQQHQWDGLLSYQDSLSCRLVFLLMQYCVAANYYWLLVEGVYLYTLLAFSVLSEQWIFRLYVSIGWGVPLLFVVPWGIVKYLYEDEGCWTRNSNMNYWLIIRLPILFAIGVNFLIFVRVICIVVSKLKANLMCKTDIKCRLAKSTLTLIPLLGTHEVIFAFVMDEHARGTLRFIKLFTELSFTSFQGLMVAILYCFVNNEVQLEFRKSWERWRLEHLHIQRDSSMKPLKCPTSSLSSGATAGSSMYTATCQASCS

Row | Binder | Relative cAMP EC50, nM (0.1% casein) (hGLP-1R) [nM] | cAMP Rel EC50 (receptor-expressing HEK-293 cells, 1% HSA) (hGLP-1R) [nM] | Relative cAMP EC50, nM (0.1% casein) [1] [nM] | cAMP Rel EC50 (receptor-expressing HEK-293 cells, 1% HSA) [1] [nM] | Relative cAMP EC50, nM (0.1% casein) [2] [nM] | cAMP Rel EC50 (receptor-expressing HEK-293 cells, 1% HSA) [2] [nM] | Relative cAMP EC50 (hGLP-1R) [nM] | cAMP Rel EC50 (1% HSA) (hGLP-1R) [nM] | Relative cAMP EC50 [1] [nM] | cAMP Rel EC50 (1% HSA) [1] [nM] | Relative cAMP EC50 [2] [nM] | cAMP Rel EC50 (1% HSA) [2] [nM]
1 | B1 | 0.172 | 11.8 | 0.0121 | 1.25 | 2.31 | 523 | – | – | – | – | – | –
2 | B2 | 0.146 | 9.85 | 0.0119 | 0.84 | 1.35 | 128 | – | – | – | – | – | –
3 | B3 | 0.211 | 19.9 | 0.014 | 1.08 | 1.26 | 333 | – | – | – | – | – | –
4 | B4 | 0.274 | 53.8 | 0.0361 | 5.74 | 1.75 | 205 | – | – | – | – | – | –
5 | B5 | – | – | – | – | – | – | 1.08 | 161 | 0.297 | 32.6 | 2.7 | 418
6 | B6 | – | – | – | – | – | – | 0.326 | 30.6 | 0.0337 | 2.42 | 3.8 | 395
7 | B7 | – | – | – | – | – | – | 0.525 | 26.1 | 0.0518 | 2.02 | 3.98 | 233
8 | B8 | – | – | – | – | – | – | 0.253 | 16.5 | 0.0364 | 1.8 | 2.83 | 162
9 | B9 | – | – | – | – | – | – | 0.205 | 39 | 0.00707 | 2.1 | 0.445 | 92
10 | B10 | – | – | – | – | – | – | 0.51 | 35.5 | 0.033 | 1.95 | 6.32 | 441
11 | B11 | – | – | – | – | – | – | 0.482 | 27.1 | 0.021 | 0.869 | 3.79 | 234
12 | B12 | – | – | – | – | – | – | 0.487 | 32.7 | 0.0266 | 1.46 | 5.11 | 464
13 | B13 | – | – | – | – | – | – | 0.426 | 20.2 | 0.0351 | 2.07 | 10 | 460
